Source: patent US20100151486A1, “OSTEOPONTIN FUNCTIONAL EPITOPES, MONOCLONAL ANTIBODIES AGAINST THE EPITOPES AND USES THEREOF” (SHANGHAI NATIONAL ENGINEERING RESEARCH CENTER OF A, priority 2007, published 2010)

B1: c1A12: chimeric anti-hOPN mAb between human and murine; VH SEQ ID NO: 4, VL SEQ ID NO: 6, human constant region (antibody, V domains shown)
VH: QVQLEQSGPELVKPGASVKMSCKSSGYTFTTYVMHWVKQKPGQGLEWIGYINPYNDGSKYNEKFKGKATLTSDKSSNTAYMELSSLTSEDSAVYYCASHYGGSPAYWGQGTLVTVSA
VL: DILMTQTPLSLPVSLGDQASISCRSSQSLVHSNGNTYLHWYLQKPGQSPKLLIYKVSNRFSGVPDRFSGSGSGTDFTLKISRVEAEDLGVYFCSQSTHVPWTFGGGTKLEIKR
modifications: human constant regions; amino acid sequence of the heavy chain variable region in 1A12; amino acid sequence of the light chain variable region in 1A12
B2: humanized anti-hOPN antibody h1A12 (h1A12Hb/h1A12Lb) (antibody, human IgG1, kappa, V domains shown)
VH: QVQLVQSGAEVKKPGASVKVSCKSSGYTFTTYVMHWVKQAPGQGLEWIGYINPYNDGSKYNEKFKGRVTITSDKSASTAYMELSSLRSEDTAVYYCASHYGGSPAYWGQGTLVTVSS
VL: DVLMTQSPLSLPVTLGQPASISCRSSQSLVHSNGNTYLHWFQQRPGQSPKLLIYKVSNRFSGVPDRFSGSGSGTDFTLKISRVEAEDVGVYYCSQSTHVPWTFGGGTKVEIKR
notes: Tested as COS-1 supernatant in the ELISA; also called humanized antibody 1A12
B3: h1A12: humanized anti-hOPN mAb; VH SEQ ID NO: 19, VL SEQ ID NO: 21, human constant region (antibody, V domains shown)
VH: QVQLVQSGAEVKKPGASVKVSCKSSGYTFTTYVMHWVKQAPGQGLEWIGYINPYNDGSKYNEKFKGRVTITSDKSASTAYMELSSLRSEDTAVYYCASHYGGSPAYWGQGTLVTVSS
VL: DVLMTQSPLSLPVTLGQPASISCRSSQSLVHSNGNTYLHWFQQRPGQSPKLLIYKVSNRFSGVPDRFSGSGSGTDFTLKISRVEAEDVGVYYCSQSTHVPWTFGGGTKVEIKR
modifications: human constant regions; amino acid sequence of the VH in humanized anti-OPN antibody H1A12; amino acid sequence of the VL in humanized anti-OPN antibody H1A12

Columns and labels:
MDA-MB-435s cells [1] = assay: Cell adhesion assay on hOPN-coated plate; type: cell-based; conditions: antibody 25 μg/ml; plate coated with 10 μg/ml hOPN; 2 hrs
Experimental: MDA-MB-435s was purchased from the Institute of Cell Biology of Chinese Academy of Sciences (Shanghai, China), and 23C3D3 was used as the irrelevant antibody.
A 96-well plate (Greiner) was coated with 10 μg/ml hOPN (prepared in Example 3) or BSA (SIGMA) at 4° C. overnight, and was then blocked with 1% BSA/PBS at 37° C. for 1 hour to block any non-specific binding sites. The MDA-MB-435s cells were detached using 0.2% EDTA and then re-suspended in 0.25% BSA/DMEM at the concentration of 5×10^5 cells/ml. To each well, 100 μl (5×10^4) MDA-MB-435s cells were added in the presence of various anti-OPN antibodies (25 μg/ml) murine anti-human OPN antibody 1A12, the human-murine chimeric antibody c 1A12 or the humanized antibody h1A12 as treatment groups and the irrelevant antibody 23C3 as control (25 μg/ml). After incubation at 37° C. for 2 hrs, the medium was removed and washed twice with PBS gently. The adherent cells were fixed in 1% formaldehyde at 4° C. for 10 minutes, stained with 0.5% crystal violet after washed with PBS and lysed with 2% Triton X-100 (50 μl). The absorbance was measured at 595 nm.

MDA-MB-435s cells [2] = assay: Cell invasion assay (Transwell, Matrigel); type: cell-based; conditions: antibody 25 μg/ml; in the presence of hOPN; 24 hours
Experimental: The assay of cell invasion was carried out using the Transwell system (Corning) with the pore size of […]. The basement membrane of the upper chamber was coated with the artificial matrix gel (Matrigel). After being dried in a flame hood, the matrigel was hydrated with DMEM at 37° C. for 1 hour. MDA-MB-435s cells were detached using 0.2% EDTA and suspended in 0.25% BSA/DMEM at the concentration of 5×10^5 cells/ml. 100 μl of the obtained cell suspension as well as the following 25 μg/nil of antibodies were respectively added into the upper chamber of each well: 1A12 (murine anti-human OPN antibody), c1A12 (human-mouse chimeric antibody), h1A12 (humanized antibody), and 23C3 (irrelevant antibody control). To lower chamber, 0.25% of BSA/DMEM (with or without OPN) was added. The system was then incubated in incubator at 37° C. for 24 hours. After that, the cells remaining in the upper chamber was wiped away using a cotton swab, and the cells penetrate through the basement membrane into the lower chamber were washed with PBS, fixed with 1% formaldehyde, and then stained with 0.5% crystal violet. The cells were counted in the field at 200× magnification under a microscope.

MDA-MB-435s cells [3] = assay: Scratch wound healing assay; type: cell-based; conditions: antibody 25 μg/ml; 24 hours
Experimental: The MDA-MB-435s cells cultured in a 12-wells plate to almost confluent (90%) washed with PBS and starved overnight with serum-free DMEM. Scratches were made on the cell monolayer using a 10 μl pipette, and PBS was added to wash away the floating cells. The test groups were treated with 25 μg/ml of the murine anti-human OPN antibody 1A12, the human-murine chimeric antibody c1A12 and the humanized antibody h1A12, and the control group, 25 μg/ml of the irrelevant antibody. The cells were incubated in an incubator at 37° C. for 24 hours. The result was expressed as the number of the cells that cross the base line.

MDA-MB-435s cells [4] = assay: Clone formation on soft agar assay; type: cell-based; conditions: antibody 25 μg/ml every other day; 3 weeks
Experimental: The assay of clone formation on soft agar was conducted using a double-layer soft agar system. 2.5% melted agar was mixed the DMEM medium pre-warmed at 37° C. to formulate a 0.5% agar solution, which was then diluted with DMEM to a 0.3% agar solution. To each well of a 24-well plate was added 500 μl of a 0.5% agar solution, which was allowed to gel at 4° C., and then kept warm in an incubator at 37°C. The MDA-MB-435s cells were detached using 0.2% .EDTA and suspended in the 0.3% agar solution at the concentration of 5×10^3 cells/ml. 500 μl of the cell suspension was added each well and left to gel. From the second day, the cells were respectively treated with 1A12, c1A12, h1A12 or the irrelevant antibody (23C3D3) (25 μg/ml) every other day. After 3 weeks, the colony formation ability was evaluated by measuring the size of colonies containing more than 10 cells.

[5] = test system: human vascular endothelial cell (HUVEC); assay: HUVEC proliferation by 3H-TdR incorporation; type: cell-based; conditions: M200+1% BSA+OPN+antibody; 24 hours
Experimental: HUVEC cell proliferation was measured by the ^3H-TdR incorporation method to determine the protective effect of OPN on cell survival and the inhibitory effect of the anti-OPN antibodies on the OPN protection. Each well of a 96-well plate was inoculated with 2×10^4 HUVECs and cultured in a complete medium for 24 hours. The cells were then treated as following for 24 hours: […]
iv. M200+1% BSA+OPN+murine anti-OPN antibody 1A12 v. M200+1% , BSA+OPN+human-murine chimeric anti-OPN antibody c1A12 vi. M200+1% BSA+OPN+humanized anti-OPN antibody h1A12 vii. M200+1% BSA+OPN+irrelevant antibody
24 hours later, 1 uCi/well ^3H-thymidine was added and, after being incubated at 37° C. for 6 hours, washed once with PBS. The plate was treated with ice-cold 10% trichloroacetic acid/H2O at 4° C. for 10 min, and then washed for two times with, ice-cold ddH2O. Cytolysis was conducted by adding into each well 0.1 ml of 0.5 N NaOH, 0.5% SDS at room temperature for 10 min. After adding 0.2 ml of 0.5 N HCl and mixing, the cells were collected using a multiple cell collector.

HUVECs = assay: Formation of capillary-like structure in HUVECs on matrigel; type: cell-based, human
Experimental: HUVECs were cultured in the M200 medium containing LCGS to 80% confluence. The matrigel stored at −20° C. was took out the day before experiment and naturally thawed at 4° C. for 3 to 12 hours. To each well of a 96-welt plate was added […] using a pre-cooled pipet with carefully removing the bubbles, wherein the whole procedure was carried on ice. The loaded plate was incubated at 37° C. for 1 hour to gel the matrigel. To each well, 100 μl HUVECs (2×10^4/well) was gently added onto the surface of matrigel. To the treatment groups were further added the anti-hOPN antibodies 1A12, c1A12 and h1A12. The plate was incubated at 37° C. for […], and the formation of the capillary-like structure was observed 6 hours after.

rabbit cornea = assay: OPN-induced rabbit corneal neovascularization; type: in vivo; conditions: pellet with 200 ng hOPN and 1 μg antibody; for area of neovascularization / length of the newly generated blood vessels: relative to irrelevant antibody group, P<0,01
Experimental: The Hydron powder was dissolved in anhydrous ethanol under sterile condition to the final concentration of 12% (w/v), and dissolved with agitation under 37° C. to formulate the 12% Hydron cast solution, which was then stored at room temperature. A quota of sucralfate powder formulated in sterile Milli Q water under sterile conditions as a suspension with the final concentration of 100 μg/μl, which was stored at 4° C., and vortexed to homogeneous intermediately before use. Sustained-release pellets were prepared to each containing 200 ng hOPN and 50 μg sucralfate and, for the antibody groups, 1 μg anti-OPN antibodies, and for the control, the irrelevant antibody. The 12% Flydron east solution and the hOPN-sucralfate-PBS blend were mixed as the ratio of 1:1 (volume ratio), vortexed for 1 min. Then 5 μl mixed Hydron-sucralfate-hOPN solution was added onto a sterilized Parafilm surface, dried for about 30 min on a super-clean bench for a complete polymerization. The polymers were then shaped into uniform circular granules with a 2 mm diameter using an eye tweezers. The granules were stored at −20′C. Animals were grouped in the same way as in Experiment II-3, each group consisting of four eyes.
The rabbit was anesthetized at ear edge vein with 3% sodium pentobarbital (1 ml/kg body weight) and on both corneal surfaces with 1% tetracaine. The thickness of the cornea was measured using an ultrasonic cornea thickness gauge. A 3 mm half-depth incision was made at the center of the cornea using an ophthalmic knife, and an undermining tunnel toward the 12 o'clock or 3 o'clock position on the corneoscleral margin was made using a 2 mm-wide scleral tunnel knife, whereby the tunnel lied within the corneal layer with the top of the tunnel about 1 mm distant from the limbus corneae. The Hydron/sucralfate sustained-release pellet was implanted into the top of tunnel using micro-tweezers. The cuts were treated with chlortetracycline eye ointment after the surgery. From Day 1 after the surgery, the double-blinded observer observed the rabbit conical neovascularization under the slit-lamp each day, until the Day 10, The length (VL) and the vascular clock angle (CN, 30°=1CN) of the longest vessel were measured, and the area of neovascularization was calculated according to the following formula:
Area (mm^2)=0.2×π×VL (mm)×CN (mm)

[6] = target: T1, human osteopontin (human OPN protein) (human, UniProt P10451 17-314, limits assumed); assay: ELISA, plate coated with OPN 2 ug/ml, COS-1 supernatant, HRP-rabbit anti-human IgG
T1 construct: The isoform follows from the 963 bp PCR fragment and is not otherwise stated; also called hOPN
Experimental: An ELISA plate was coated with 2 ug/ml OPN. The binding activity of the humanized antibody obtained from the transfection was detected by ELISA. […] The amino acid sequences of the h1A12HBb's and the h1A12Lb's variable regions were shown in FIG. 4, SEQ ID NO: 18 and SEQ ID NO: 19 show the nucleotide sequence and the amino acid sequence of h1A12Hb's variable region respectively. SEQ ID NO: 20 and SEQ ID NO: 21 show the nucleotide sequence and the amino acid sequence of h1A12Lb's variable region respectively. The genes of the humanized antibody's VH and VL (h1A12VHb/h1A12VLb) were synthesized respectively. […] Then, expression vectors of the light and the heavy chain were used to co-transfect the COS-1 cells. The antibody's antigen-binding activity was determined by ELISA. Specifically, an ELISA plate was coated with OPN protein (2 ug/ml) coated at 4° C. overnight, and was blocked with 2% BSA-PBS for 2 h at 37° C. […] HRP-rabbit anti-human IgG was added into the plate for binding reaction (incubated at 37° C. for 1 h).

T1 sequence (P10451 17-314 limits assumed): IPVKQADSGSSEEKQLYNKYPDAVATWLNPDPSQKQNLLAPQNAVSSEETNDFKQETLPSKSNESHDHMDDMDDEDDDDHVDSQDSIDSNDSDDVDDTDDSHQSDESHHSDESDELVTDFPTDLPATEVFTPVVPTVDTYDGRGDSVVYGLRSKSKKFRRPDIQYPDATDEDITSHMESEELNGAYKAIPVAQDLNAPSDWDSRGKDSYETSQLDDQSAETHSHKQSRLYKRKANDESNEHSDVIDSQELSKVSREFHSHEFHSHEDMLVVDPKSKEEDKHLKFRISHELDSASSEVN

Row | Molecule | blocking of the binding between MDA-MB-435s cells and hOPN (MDA-MB-435s cells [1]) | blocking of invasion of the basement membrane by MDA-MB-435s (MDA-MB-435s cells [2]) | inhibition of the reparation of the scratches and damages (MDA-MB-435s cells [3]) | inhibition of clone size formed by MDA-MB-435s cells on soft agar (MDA-MB-435s cells [4]) | 3H-TdR incorporation relative to the OPN group [5] | potency of forming the capillary-like structure in HUVECs (HUVECs) | corneal neovascularization relative to the OPN group (rabbit cornea) | area of neovascularization (rabbit cornea) | length of the newly generated blood vessels (rabbit cornea) | binding result [6]
1 | B1 | effectively block | effectively block | effectively inhibit | no significant differences | significantly lower | reduce | significantly reduced | significantly shrunk | significantly reduced | 
2 | B2 |  |  |  |  |  |  |  |  |  | binds
3 | B3 | effectively block | effectively block | effectively inhibit | no significant differences | significantly lower | reduce | significantly reduced | significantly shrunk | significantly reduced | 
